Substitutions are numbered along the chain they refer to.

Experiment [1] has as its target T1, human VEGF165 (human, UniProt P15692 207-395). Nature of the experiment: sandwich ELISA, antibody coated. How it is done:
(§1) Mutants were transiently expressed in CHO-K1 cells, and cell supernatants were collected for binding analysis by ELISA.
(§2) The plate was blocked with 30% ChemiBlock™ reagent (Millipore) in PBS for one hour at room temperature, and 30, 60, or 100 μl of CHO-K1 culture supernatant for each mutant, or 1 μg/ml of wild-type hVEGF₁₂₁, recombinant hVEGF₁₆₅, or recombinant mVEGF₁₆₅, was added to appropriate wells. After one hour of incubation, the plate was washed and incubated with a biotinylated goat polyclonal anti-VEGF antibody for one hour at room temperature. Detection was performed with HRP-conjugated streptavidin, followed by TMB chromogenic substrate (Calbiochem) using manufacturer protocol.
Background: In an ELISA, binding on a coated surface is turned into a signal by an enzyme label.

For experiment [2], the target named is T2, murine VEGF165 (murine, UniProt Q00731-2 27-190).
T2 construct: also called mVEGF165; rMu-VEGF165
T2 sequence (looked up): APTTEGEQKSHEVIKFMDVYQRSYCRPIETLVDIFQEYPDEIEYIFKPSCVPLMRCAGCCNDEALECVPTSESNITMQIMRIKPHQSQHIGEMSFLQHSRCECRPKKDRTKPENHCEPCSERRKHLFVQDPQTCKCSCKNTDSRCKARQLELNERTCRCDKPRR
Kind of experiment: sandwich ELISA, antibody coated. How it is done:
as §1, §2

Another experiment addresses T3, wild-type hVEGF121 (human, UniProt P15692-9 27-147).
T3 sequence (looked up): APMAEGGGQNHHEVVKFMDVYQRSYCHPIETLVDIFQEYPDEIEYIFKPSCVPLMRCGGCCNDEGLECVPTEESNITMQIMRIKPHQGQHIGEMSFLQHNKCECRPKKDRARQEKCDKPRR
Kind of experiment: sandwich ELISA, antibody coated. How it is done:
as §1, §2

A further experiment concerns the target T4, hVEGF121-M81A (human, UniProt P15692-9 27-147).
T4 construct: Transiently expressed in CHO-K1 cells; culture supernatant used
T4 sequence (looked up): T3 sequence (looked up) with M81A
Kind of experiment: sandwich ELISA, antibody coated. How it is done:
as §1, §2

A further experiment has as its target T5, hVEGF121-G88S (human, UniProt P15692-9 27-147, G88S).
T5 construct: Transiently expressed in CHO-K1 cells; culture supernatant used
T5 sequence (looked up): T3 sequence (looked up) with G88S
Nature of the experiment: sandwich ELISA, antibody coated. How it is done: as §1, §2

Another experiment has as its target T6, hVEGF121-Q89A (human, UniProt P15692-9 27-147, Q89A).
T6 construct: Transiently expressed in CHO-K1 cells; culture supernatant used
T6 sequence (looked up): T3 sequence (looked up) with Q89A
Kind of experiment: sandwich ELISA, antibody coated. How it is done: as §1, §2

A further experiment deals with T7, hVEGF121-G92A (human, UniProt P15692-9 27-147, G92A).
T7 construct: Transiently expressed in CHO-K1 cells; culture supernatant used
T7 sequence (looked up): T3 sequence (looked up) with G92A
Kind of experiment: sandwich ELISA, antibody coated. How it is done:
as §1, §2

The target in experiment [3] is T1, human VEGF165. Nature of the experiment: cell-based or functional assay.
Experiment [4] has as its target T1, human VEGF165. Nature of the experiment: Biacore (SPR). On the technique in general: Surface plasmon resonance follows binding to a sensor surface in real time, without labels.
Experiment [5] has as its target T1, human VEGF165. Kind of experiment: Biacore 2000, hVEGF165 amine-coupled on C1 chip, antibody injected, 1:1 fit. How it is done: (§3) The VEGF binding affinity of these IgGs was tested on a Biacore 2000® by injecting the antibodies over a very low density antigen surface. Human or murine VEGF₁₆₅ was immobilized via standard amine coupling methods to flow cells on a C1 (planar carboxy surface) chip. Approximately 85 RU of each antigen was immobilized and a reference flow cell was activated and blocked. Antibodies were injected over the chip surface for 400 seconds at two different concentrations, after which dissociation was monitored. Data was analyzed by Scrubber® using double referencing and fitting with a 1:1 interaction. Regenerations were performed with 90 mM HCl with 500 mM NaCl.
Target sequence in this assay (P15692 other isoform, or with tags, fused parts or gaps limits assumed): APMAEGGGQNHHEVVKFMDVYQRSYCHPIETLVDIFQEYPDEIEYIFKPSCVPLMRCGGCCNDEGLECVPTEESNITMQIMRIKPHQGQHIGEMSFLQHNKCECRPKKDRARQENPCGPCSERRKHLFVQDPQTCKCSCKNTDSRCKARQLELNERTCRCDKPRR

Experiment [6] deals with T1, human VEGF165. Nature of the experiment: cell-based or functional assay. This is another data set of the same source.
Target sequence in this assay (P15692 other isoform, or with tags, fused parts or gaps limits assumed): as above
For experiment [7], the target named is T1, human VEGF165. Kind of experiment: ELISA on hVEGF165; unstressed XPA.10.064.06.
Experiment [8] concerns the target T1, human VEGF165. Nature of the experiment: ELISA on hVEGF165; unstressed XPA.10.064.06. The source holds these as a separate data set.
In experiment [9] the target is T2, murine VEGF165. Kind of experiment: Biacore 2000, mVEGF165 amine-coupled on C1 chip, antibody injected. How it is done: as §3
Experiment [10] addresses T1, human VEGF165. Kind of experiment: ELISA on hVEGF165; XPA.10.064.06 after thermal stress without methionine. How it is done: (§4) For chemical stress, the antibodies were incubated overnight at room temperature with 0.1% tBHP in the presence or absence of 5 mM L-methionine. For thermal stress, the antibodies were incubated in polysorbate for four weeks at 40° C. in the presence or absence of 5 mM L-methionine. The ability of the antibodies to bind hVEGF₁₆₅ was analyzed by Biacore and ELISA.

The target of experiment [11] is T1, human VEGF165. Kind of experiment: ELISA on hVEGF165; XPA.10.064.06 after chemical stress (tBHP) without methionine. How it is done:
as §4

For experiment [12], the target named is T1, human VEGF165. Nature of the experiment: ELISA on hVEGF165; XPA.10.064.06 after thermal stress in the presence of methionine. How it is done: as §4
In experiment [13] the target is T1, human VEGF165. Kind of experiment: ELISA on hVEGF165; XPA.10.064.06 after chemical stress (tBHP) in the presence of methionine. How it is done: as §4

In the case of “control polyclonal goat anti-human VEGF (antibody)”, the Raw data (ELISA signal) with human VEGF165 [1] was 2.45; with murine VEGF165 [2] it was 0.0939; with wild-type hVEGF121, 2.56; with hVEGF121-M81A, 1.71; with hVEGF121-G88S, 0.769; with hVEGF121-Q89A it was 0.985. The molecule also displayed a Raw data (ELISA signal) with hVEGF121-G92A of 2.18. For the same molecule, the fold binding over CHO background in the experiment with human VEGF165 [1] was found to be 26.9 fold; with murine VEGF165 [2], 1 fold; in the experiment with wild-type hVEGF121 it was 28 fold; with hVEGF121-M81A, 18.8 fold; with hVEGF121-G88S, 8.4 fold; in the experiment with hVEGF121-Q89A, 10.8 fold. For the same molecule, the fold binding over CHO background with hVEGF121-G92A was found to be 23.9 fold.

B1: XPA.10.064 scFv-Fc (Fc fusion, part only; not given: linker, gamma-2 Fc, junction, not shown: another chain or arm of the molecule; a dimerising Fc or GST; small tags and cut ends)
VH: EVQLVQSGAEVRKPGASVKVSCKASGYSFTGHYIHWVRQAPGQGLEWMGWINPYSGGTNFPREFQGRVTMTRDTSVNTVYMELTRLTSDDTSVYYCARDHRIVGGLDYWGQGTLVTVSS
VL: SYVLTQPPSASGTPGQRVTISCSGSSSNIGINYVYWYQQLPGTAPKLLIYRNDQRPSGVPDRFSGSKSGTSASLAISGLRSEDEADYYCATWDDSLSGVVFGGGTKVTVL
Regarding B1, in the experiment with human VEGF165 [3], the HPP: sf21-hVEGF165, scFvFc (IC50) was 0.41 µg/mL.

B2: XPA.10.064 after oxidation with tert-butylhydroperoxide (antibody, V domains shown)
VH: B1 VH
VL: B1 VL
modifications: partial methionine oxidation after tBHP: Met-48 39%, Met-70 0%, Met-81 28%
notes: also called oxidized XPA.10.064
In the case of B2, the binding result with human VEGF165 [4] is on record as “binds”.

B3: XPA.10.064.04 IgG2 (antibody, V domains shown)
VH: B1 VH with H100E, R101M, I102Q, V103N
VL: B1 VL
notes: IgG2
B3: in the experiment with human VEGF165 [5], the Kd came to 0.197 nM, the koff amounted to 2.94e-05 s⁻¹ and the kon turned out to be 150000 M⁻¹ s⁻¹.

B4: XPA.10.064.06 IgG2 (antibody, V domains shown)
VH: B1 VH with H100E, R101M, I102T, V103R
VL: B1 VL
notes: IgG2
Take B4: the “HUVEC proliferation, geometric mean IC50” value with human VEGF165 [6] was determined as 0.173 nM. The “EC50 (read off the curve)” value with human VEGF165 [7] is approximately 0.006 µg/mL. Further, the “EC50 (read off the curve)” value in the experiment with human VEGF165 [8] was approximately 0.006 µg/mL. Also, the Kd with murine VEGF165 [9] is 208 nM. In the experiment with human VEGF165 [5], this molecule gave a Kd of 0.121 nM, a koff of 2.07e-05 s⁻¹ and a kon of 178000 M⁻¹ s⁻¹.

B5: XPA.10.064.06 after oxidation (chemical stress with tBHP or thermal stress) (antibody, V domains shown)
VH: B1 VH with H100E, R101M, I102T, V103R
VL: B1 VL
modifications: partial methionine oxidation; after tBHP: Met-48 20%, Met-70 0%, Met-81 14%, Met-101 66%; degree after thermal stress not given
notes: also called oxidized XPA.10.064.06
On to B5, for which the “EC50 (read off the curve)” value with human VEGF165 [10] is approximately 0.01 µg/mL; with human VEGF165 [11], approximately 0.05 µg/mL; in the experiment with human VEGF165 [12], approximately 0.006 µg/mL; with human VEGF165 [13], approximately 0.02 µg/mL.

B6: XPA.10.064.03 IgG2 (antibody, V domains shown)
VH: B1 VH with H100Q, R101M, I102V, V103H
VL: B1 VL
notes: IgG2
Consider B6, for which the “HUVEC proliferation, geometric mean IC50” value in the experiment with human VEGF165 [6] is 0.174 nM. In addition, in the experiment with human VEGF165 [5], the Kd is 0.0917 nM, the koff is 1.8e-05 s⁻¹ and the kon came to 196000 M⁻¹ s⁻¹.

B7: XPA.10.064.10 IgG2 (antibody, V domains shown)
VH: B1 VH with H100E, R101M, I102V, V103W
VL: B1 VL
notes: IgG2
Consider B7, for which the “HUVEC proliferation, geometric mean IC50” value in the experiment with human VEGF165 [6] is 0.139 nM. In the experiment with human VEGF165 [5], this molecule returned a Kd of 0.0556 nM, a koff of 1.16e-05 s⁻¹ and a kon of 216000 M⁻¹ s⁻¹.

B8: XPA.10.064.07 IgG2 (antibody, V domains shown)
VH: B1 VH with H100E, R101M, I102H
VL: B1 VL
notes: IgG2
B8: the “HUVEC proliferation, geometric mean IC50” value with human VEGF165 [6] stood at 0.129 nM. The Kd with murine VEGF165 [9] stood at 130 nM. Besides, in the experiment with human VEGF165 [5], the Kd was determined as 0.0349 nM, the koff worked out at 6.65e-06 s⁻¹ and the kon was found to be 207000 M⁻¹ s⁻¹.

B9: Bevacizumab (antibody, V domains shown)
VH: EVQLVESGGGLVQPGGSLRLSCAASGYTFTNYGMNWVRQAPGKGLEWVGWINTYTGEPTYAADFKRRFTFSLDTSKSTAYLQMNSLRAEDTAVYYCAKYPHYYGSSHWYFDVWGQGTLVTVSS
VL: DIQMTQSPSSLSASVGDRVTITCSASQDISNYLNWYQQKPGKAPKVLIYFTSSLHSGVPSRFSGSGSGTDFTLTISSLQPEDFATYYCQQYSTVPWTFGQGTKVEIK
As for B9, the “Raw data (ELISA signal)” value in the experiment with murine VEGF165 [2] stood at 0.0843.

The Kd is the equilibrium constant for the complex coming apart. By koff is commonly meant the first-order rate constant of dissociation. Read a high koff as a short-lived complex. In general, kon refers to the second-order rate constant of association. The term EC50 (read off the curve) denotes the concentration needed to bring the measured effect to its halfway point.

Values taken from patent publication US20110097340A1 (SCHERING, published 2011).
